According to IntAct's records for PubMed 25766235:

B1: Regulator of G-protein signaling 2 (Homo sapiens), P41220-1 (parent)
chain: MQSAMFLAVQHDCRPMDKSAGSGHKSEEKREKMKRTLLKDWKTRLSYFLQNSSTPGKPKTGKKSKQQAFIKPSPEEAQLWSEAFDELLASKYGLAAFRAFLKSEFCEENIEFWLACEDFKKTKSPQKLSSKARKIYTDFIEKEAPKEINIDFQTKTLIAQNIQEATSGCFTTAQKRVYSLMENNSYPRFLESEFYQDLCKKPQITTEPHAT
partner: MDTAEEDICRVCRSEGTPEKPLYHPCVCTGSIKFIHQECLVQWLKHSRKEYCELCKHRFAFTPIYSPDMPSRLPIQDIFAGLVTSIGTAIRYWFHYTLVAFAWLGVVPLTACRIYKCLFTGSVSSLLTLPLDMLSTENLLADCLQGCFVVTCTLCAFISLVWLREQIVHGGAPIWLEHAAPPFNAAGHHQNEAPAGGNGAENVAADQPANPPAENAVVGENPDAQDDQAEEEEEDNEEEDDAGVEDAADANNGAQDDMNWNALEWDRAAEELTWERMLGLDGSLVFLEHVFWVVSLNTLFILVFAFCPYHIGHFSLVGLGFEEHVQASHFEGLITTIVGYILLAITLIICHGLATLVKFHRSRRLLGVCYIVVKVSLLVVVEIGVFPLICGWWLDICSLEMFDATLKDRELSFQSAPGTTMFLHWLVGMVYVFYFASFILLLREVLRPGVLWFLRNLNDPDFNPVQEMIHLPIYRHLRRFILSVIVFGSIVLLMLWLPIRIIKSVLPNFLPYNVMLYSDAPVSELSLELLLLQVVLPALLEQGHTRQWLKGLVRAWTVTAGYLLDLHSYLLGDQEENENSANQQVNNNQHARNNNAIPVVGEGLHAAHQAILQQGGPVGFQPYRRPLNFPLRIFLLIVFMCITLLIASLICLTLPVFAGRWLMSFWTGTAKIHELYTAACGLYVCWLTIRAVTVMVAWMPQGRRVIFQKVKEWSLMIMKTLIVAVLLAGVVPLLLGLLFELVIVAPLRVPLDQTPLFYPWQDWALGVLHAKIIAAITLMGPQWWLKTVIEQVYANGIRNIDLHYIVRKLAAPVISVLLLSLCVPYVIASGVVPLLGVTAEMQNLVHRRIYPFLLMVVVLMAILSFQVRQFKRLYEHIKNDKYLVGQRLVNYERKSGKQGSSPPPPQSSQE

Variants of: B1
Conditions: with marh6_human MARCHF6, O60337

Variant	effect of a mutation on the interaction
PQSAMFLAVQHDCRPMDKSAGSGHKSEEKREKMKRTLLKDWKTRLSYFLQNSSTPGKPKTGKKSKQQAFIKPSPEEAQLWSEAFDELLASKYGLAAFRAFLKSEFCEENIEFWLACEDFKKTKSPQKLSSKARKIYTDFIEKEAPKEINIDFQTKTLIAQNIQEATSGCFTTAQKRVYSLMENNSYPRFLESEFYQDLCKKPQITTEPHAT [M1P]	disrupting interaction strength
